Measured values as given in patent US20120288510A1 (UNIVERSITY OF MASSACHUSETTS, published 2012).
Like-named read-outs stand apart in the source and are kept apart here. No end group written: not given here.

Experiments:
[1] = target: T1, soluble HCV genotype 1b E2-661 (pCDNA-1b-E2-661) (Hepatitis C virus genotype 1b); assay: ELISA on plate coated with 2 µg/ml antigen; two-fold antibody dilutions; goat anti-human AP, PNPP
T1 construct: range 364-661

[2] = target: T2, E2-G bacterially expressed thioredoxin fusion protein (pET32-E2-G, E2 amino acids 412 to 423) (Hepatitis C virus genotype 1a, not fully specified (N-terminus); also: N-terminal thioredoxin fusion partner); assay: Biacore SPR; antibody captured on goat anti-human IgG Fc, E2-G flowed over at varying concentrations; BIAevaluation fit
T2 construct: also called WT; not shown: thioredoxin, N-terminal fusion partner of the pET32 vector; C-terminal myc and 6 histidine tags
T2 chain: QLINTNGSWHIN-{myc tag-His6}

[3] = target: T2, E2-G bacterially expressed thioredoxin …; assay: ELISA on coated bacterial fusion protein; two-fold antibody dilutions; goat anti-human AP, PNPP
E2-D = assay: as above
[4] = target: E2-G bacterially expressed fusion protein with the E2 412-423 sequence of a genotype 5 strain (genba (Hepatitis C virus genotype 5)); assay: ELISA, fusion protein coated on plate
[5] = target: T3, E2-G bacterially expressed fusion protein with the E2 412-423 sequence of genotype 6g (Hepatitis C virus genotype 6g, not fully specified (N-terminus); also: N-terminal thioredoxin fusion partner); assay: ELISA on coated bacterial fusion protein; two-fold antibody dilutions; goat anti-human AP, PNPP
T3 construct: not shown: thioredoxin, N-terminal fusion partner of the pET32 vector; C-terminal myc and 6 histidine tags
T3 chain: QLIKTNGSWHIN-{myc tag-His6}

[6] = target: T4, E2-G bacterially expressed fusion protein with the E2 412-423 sequence of genotype 2b (Hepatitis C virus genotype 2b, also: vector linker residues not given here); assay: as above
T4 construct: not shown: thioredoxin, N-terminal fusion partner of the pET32 vector; C-terminal myc and 6 histidine tags
T4 chain: thioredoxin-HLVNSNGSWHIN-{myc tag-His6 tag}

[7] = target: T5, E2-G bacterially expressed fusion protein with the E2 412-423 sequence of genotype 3a (Hepatitis C virus genotype 3a, also: vector linker residues not given here); assay: as above
T5 construct: not shown: thioredoxin, N-terminal fusion partner of the pET32 vector; C-terminal myc and 6 histidine tags
T5 chain: thioredoxin-QLVNSSGSWHIN-{myc tag-His6 tag}

[8] = target: T6, E2-G bacterially expressed fusion protein with the E2 412-423 sequence of genotype 6k (Hepatitis C virus genotype 6k, not fully specified (N-terminus); also: N-terminal thioredoxin fusion partner); assay: as above
T6 construct: not shown: thioredoxin, N-terminal fusion partner of the pET32 vector; C-terminal myc and 6 histidine tags
T6 chain: QLINSNGSWHVN-{myc tag-His6}

[9] = target: T7, E2-G bacterially expressed fusion protein with the E2 412-423 sequence of genotype 4a (Hepatitis C virus genotype 4a, also: vector linker residues not given here); assay: as above
T7 construct: not shown: thioredoxin, N-terminal fusion partner of the pET32 vector; C-terminal myc and 6 histidine tags
T7 chain: thioredoxin-QLINSNGSWHIN-{myc tag-His6 tag}

[10] = target: T8, E2-G bacterially expressed fusion protein with the E2 412-423 sequence of genotype 5a (Hepatitis C virus genotype 5a, not fully specified (N-terminus); also: N-terminal thioredoxin fusion partner); assay: as above
T8 construct: not shown: thioredoxin, N-terminal fusion partner of the pET32 vector; C-terminal myc and 6 histidine tags
T8 chain: QFVNTNGSWHIN-{myc tag-His6}

[11] = target: T2, E2-G bacterially expressed thioredoxin …; assay: as above
I422A = target: T9, I422A; assay: as above
T9 construct: alanine scanning mutant of E2-G; also called pET32-E2-G-I422A (printed in the text as pET32-E2-G-1422A)

N415A = target: T10, N415A (not fully specified); assay: as above
T10 construct: alanine scanning mutant of E2-G; also called pET32-E2-G-N415A; not shown: N-terminal thioredoxin partner and vector-encoded stretch of pET32
T10 chain: QLIATNGSWHINHHHHHH

L413A = assay: as above
N423A = target: T11, N423A; assay: as above
T11 construct: alanine scanning mutant of E2-G; also called pET32-E2-G-N423A

N417A = target: T12, N417A; assay: as above
T12 construct: alanine scanning mutant of E2-G; also called pET32-E2-G-N417A

H421A = target: T13, H421A; assay: as above
T13 construct: alanine scanning mutant of E2-G; also called pET32-E2-G-H421A

I414A = target: T14, I414A (not fully specified); assay: as above
T14 construct: alanine scanning mutant of E2-G; also called pET32-E2-G-I414A (printed in the text as pET32-E2-G-1414A); not shown: N-terminal thioredoxin partner and vector-encoded stretch of pET32
T14 chain: QLANTNGSWHINHHHHHH

[12] = target: T2, E2-G bacterially expressed thioredoxin …; assay: as above
S419A = target: T15, S419A; assay: as above
T15 construct: alanine scanning mutant of E2-G; also called pET32-E2-G-S419A

G418A = target: T16, G418A; assay: as above
T16 construct: alanine scanning mutant of E2-G; also called pET32-E2-G-G418A

Q412A = target: T17, Q412A (not fully specified); assay: as above
T17 construct: alanine scanning mutant of E2-G; also called pET32-E2-G-Q412A; not shown: N-terminal thioredoxin partner and vector-encoded stretch of pET32
T17 chain: ALINTNGSWHINHHHHHH

T416A = target: T18, T416A; assay: as above
T18 construct: alanine scanning mutant of E2-G; also called pET32-E2-G-T416A; not shown: N-terminal thioredoxin partner and vector-encoded stretch of pET32

E2-D, sequence (P27958 436-463, tags left off): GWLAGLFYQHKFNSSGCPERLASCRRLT

B1: human antibody 95-2 (antibody, V domains shown)
VH: QVQLVESGGGVVQPGRSLRLSCAASGFTFSSYGMHWVRQAPGKGLEWVAVIWFDGNNQYYADSVKGRFTISRDNSKNTLYLQMNSLRAEDTAVYYCARDIFTVVRGFFIYFDYWGQGTLVTVSS
VL: EIVLTQSPATLSLSPGERATLSCRASQSVGSYLAWYQQKPGQAPRLLIYDASNRATGIPARFSGSGSGTDFTLTISSLEPEDFAVYYCQQRSNWVTFGQGTRLEIK
notes: also called clone 95-2
[1]
  EC50 (read off the curve): ~0.1 µg/mL
[2]
  Kd: 1.9 nM
  koff: 0.0003 s⁻¹
  kon: 160000 M⁻¹ s⁻¹
[3]
  EC50 (read off the curve): ~0.04 µg/mL
E2-D
  binding result: no binding (tested: 1 µg/ml)
[4]
  fold reduction of recognition (reference not named): 10 fold
[5]
  EC50 (read off the curve): ~0.02 µg/mL
[6]
  EC50 (read off the curve): ~0.02 µg/mL
[7]
  EC50 (read off the curve): ~0.02 µg/mL
[8]
  EC50 (read off the curve): ~0.02 µg/mL
[9]
  EC50 (read off the curve): ~0.02 µg/mL
[10]
  EC50 (read off the curve): ~0.02 µg/mL
[11]
  EC50 (read off the curve): ~0.02 µg/mL
I422A
  EC50 (read off the curve): ~0.02 µg/mL
N415A
  EC50 (read off the curve): ~0.02 µg/mL
L413A
  binding result: binds
N423A
  EC50 (read off the curve): ~0.02 µg/mL
N417A
  EC50 (read off the curve): ~0.02 µg/mL
H421A
  EC50 (read off the curve): ~0.02 µg/mL
I414A
  EC50 (read off the curve): ~0.02 µg/mL
[12]
  EC50 (read off the curve): ~0.02 µg/mL
S419A
  EC50 (read off the curve): ~0.02 µg/mL
G418A
  EC50 (read off the curve): ~0.03 µg/mL
Q412A
  EC50 (read off the curve): ~0.02 µg/mL
T416A
  EC50 (read off the curve): ~0.02 µg/mL
